In article PMC10397247:

Tests used:
4H967-bH = target: T1, 4H967-bH; assay: two-hybrid library CCNG1;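 also: natural log of median RNA to DNA barcode read ratio; higher means stronger binding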
T1 chain: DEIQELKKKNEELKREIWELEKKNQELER

4H2667-bH = target: T2, 4H2667-bH; assay: two-hybrid library CCNG1;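 also: natural log of median RNA to DNA barcode read ratio; higher means stronger binding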
T2 chain: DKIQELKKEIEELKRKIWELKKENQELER

4H2576-bH = target: T3, 4H2576-bH; assay: two-hybrid library CCNG1;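 also: natural log of median RNA to DNA barcode read ratio; higher means stronger binding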
T3 chain: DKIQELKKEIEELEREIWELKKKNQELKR

4H607-bH = target: T4, 4H607-bH; assay: two-hybrid library CCNG1;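 also: natural log of median RNA to DNA barcode read ratio; higher means stronger binding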
T4 chain: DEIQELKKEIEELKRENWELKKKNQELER

4H2697-bH = target: T5, 4H2697-bH; assay: two-hybrid library CCNG1;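 also: natural log of median RNA to DNA barcode read ratio; higher means stronger binding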
T5 chain: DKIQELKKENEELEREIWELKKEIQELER

4H331-bH = target: T6, 4H331-bH; assay: two-hybrid library CCNG1;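 also: natural log of median RNA to DNA barcode read ratio; higher means stronger binding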
T6 chain: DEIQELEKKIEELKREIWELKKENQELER

4H2610-bH = target: T7, 4H2610-bH; assay: two-hybrid library CCNG1
T7 chain: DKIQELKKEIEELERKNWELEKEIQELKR

4H1446-bH = target: T8, 4H1446-bH; assay: two-hybrid library CCNG1
T8 chain: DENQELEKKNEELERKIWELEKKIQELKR

4H3606-bH = target: T9, 4H3606-bH; assay: two-hybrid library CCNG1
T9 chain: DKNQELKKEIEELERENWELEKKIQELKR

4H1369-bH = target: T10, 4H1369-bH; assay: two-hybrid library CCNG1
T10 chain: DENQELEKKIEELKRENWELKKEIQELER

4H462-bH = target: T11, 4H462-bH; assay: two-hybrid library CCNG1
T11 chain: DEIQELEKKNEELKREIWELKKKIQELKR

4H953-bH = target: T12, 4H953-bH; assay: two-hybrid library CCNG1
T12 chain: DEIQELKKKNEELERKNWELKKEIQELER

4H797-bH = target: T13, 4H797-bH; assay: two-hybrid library CCNG1
T13 chain: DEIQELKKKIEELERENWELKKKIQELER

4H370-bH = target: T14, 4H370-bH; assay: two-hybrid library CCNG1
T14 chain: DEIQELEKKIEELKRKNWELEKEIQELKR

4H687-bH = target: T15, 4H687-bH; assay: two-hybrid library CCNG1
T15 chain: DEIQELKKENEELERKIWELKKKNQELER

4H568-bH = target: T16, 4H568-bH; assay: two-hybrid library CCNG1
T16 chain: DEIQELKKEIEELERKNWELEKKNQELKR

4H3843-bH = target: T17, 4H3843-bH; assay: two-hybrid library CCNG1
T17 chain: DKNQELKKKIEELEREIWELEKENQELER

4H1845-bH = target: T18, 4H1845-bH; assay: two-hybrid library CCNG1
T18 chain: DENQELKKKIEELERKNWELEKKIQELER

4H4001-bH = target: T19, 4H4001-bH; assay: two-hybrid library CCNG1
T19 chain: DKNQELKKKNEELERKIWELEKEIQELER

4H883-bH = target: T20, 4H883-bH; assay: two-hybrid library CCNG1
T20 chain: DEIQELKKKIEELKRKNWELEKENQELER

4H72-bH = target: T21, 4H72-bH; assay: two-hybrid library CCNG1
T21 chain: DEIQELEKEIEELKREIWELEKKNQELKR

4H3189-bH = target: T22, 4H3189-bH; assay: two-hybrid library CCNG1
T22 chain: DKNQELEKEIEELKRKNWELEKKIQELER

4H3782-bH = target: T23, 4H3782-bH; assay: two-hybrid library CCNG1
T23 chain: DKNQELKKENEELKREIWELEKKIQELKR

4H918-bH = target: T24, 4H918-bH; assay: two-hybrid library CCNG1
T24 chain: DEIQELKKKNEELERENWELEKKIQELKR

P7bHq = target: T25, P7bHq; assay: two-hybrid library CCNG1
T25 chain: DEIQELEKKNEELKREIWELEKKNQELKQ

P1bHq = target: T26, P1bHq; assay: two-hybrid library CCNG1
T26 chain: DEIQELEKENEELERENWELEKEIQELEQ

P8bHq = target: T27, P8bHq; assay: two-hybrid library CCNG1
T27 chain: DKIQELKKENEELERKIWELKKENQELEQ

P5bHq = target: T28, P5bHq; assay: two-hybrid library CCNG1
T28 chain: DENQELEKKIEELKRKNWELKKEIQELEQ

P3bHq = target: T29, P3bHq; assay: two-hybrid library CCNG1
T29 chain: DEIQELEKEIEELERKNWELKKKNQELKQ

P9bHq = target: T30, P9bHq; assay: two-hybrid library CCNG1
T30 chain: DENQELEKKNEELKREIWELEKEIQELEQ

P2bHq = target: T31, P2bHq; assay: two-hybrid library CCNG1
T31 chain: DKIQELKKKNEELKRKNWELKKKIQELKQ

P4bHq = target: T32, P4bHq; assay: two-hybrid library CCNG1
T32 chain: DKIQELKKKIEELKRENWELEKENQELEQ

P12bHq = target: T33, P12bHq; assay: two-hybrid library CCNG1
T33 chain: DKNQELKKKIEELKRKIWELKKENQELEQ

P6bHq = target: T34, P6bHq; assay: two-hybrid library CCNG1
T34 chain: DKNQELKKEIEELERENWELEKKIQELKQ

P2-AA-1HAA-S = target: T35, P2-AA-1HAA-S; assay: two-hybrid library CCmax; settings: mean of both orientations
T35 chain: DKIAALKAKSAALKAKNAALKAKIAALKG

P2-AA = target: T36, P2-AA; assay: two-hybrid library CCmax; settings: mean of both orientations
T36 chain: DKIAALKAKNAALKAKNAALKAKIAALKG

P2-AA-1HAA-T = target: T37, P2-AA-1HAA-T; assay: two-hybrid library CCmax; settings: mean of both orientations
T37 chain: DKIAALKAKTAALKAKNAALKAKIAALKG

P2-AA-1HAA-D = target: T38, P2-AA-1HAA-D; assay: two-hybrid library CCmax; settings: mean of both orientations
T38 chain: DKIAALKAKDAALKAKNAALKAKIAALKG

P2-AA-1HAA-R = target: T39, P2-AA-1HAA-R; assay: two-hybrid library CCmax; settings: mean of both orientations
T39 chain: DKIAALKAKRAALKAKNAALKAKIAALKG

P2-AA-1HAA-H = target: T40, P2-AA-1HAA-H; assay: two-hybrid library CCmax; settings: mean of both orientations
T40 chain: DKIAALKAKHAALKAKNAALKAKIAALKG

P2-AA-1HAA-I = target: T41, P2-AA-1HAA-I; assay: two-hybrid library CCmax; settings: mean of both orientations
T41 chain: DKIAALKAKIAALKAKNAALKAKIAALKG

P2-AA-1HAA-V = target: T42, P2-AA-1HAA-V; assay: two-hybrid library CCmax; settings: mean of both orientations
T42 chain: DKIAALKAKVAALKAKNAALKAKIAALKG

P2-AA-1HAA-E = target: T43, P2-AA-1HAA-E; assay: two-hybrid library CCmax; settings: mean of both orientations
T43 chain: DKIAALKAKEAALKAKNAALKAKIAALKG

**Q.** How did the interaction score (4H967-bH) turn out when DENQELEKKIEELERKIWELKKKNQELKR [4H1328-bH] was run?
**A.** Its interaction score is -1.62.

**Q.** And the interaction score (4H2667-bH)?
**A.** The interaction score was -0.993.

**Q.** What about the interaction score (4H2576-bH) of the same binder?
**A.** The interaction score was 1.67.

**Q.** What about the interaction score (4H607-bH) of the same binder?
**A.** Its interaction score is -1.86.

**Q.** What about the interaction score (4H2697-bH) of the same binder?
**A.** The interaction score was 0.213.

**Q.** What about the interaction score (4H331-bH) of the same binder?
**A.** Its interaction score is 1.28.

**Q.** What about the interaction score (4H2610-bH) of the same binder?
**A.** The interaction score was 0.958.

**Q.** And the interaction score (4H1446-bH)?
**A.** The interaction score was 0.331.

**Q.** And the interaction score (4H3606-bH)?
**A.** Its interaction score is 0.235.

**Q.** What about the interaction score (4H1369-bH) of the same binder?
**A.** Its interaction score is -1.31.

**Q.** What about the interaction score (4H462-bH) of the same binder?
**A.** Its interaction score is 0.

**Q.** And the interaction score (4H953-bH)?
**A.** Its interaction score is -0.534.

**Q.** And the interaction score (4H797-bH)?
**A.** The interaction score was 0.552.

**Q.** What about the interaction score (4H370-bH) of the same binder?
**A.** Its interaction score is -0.934.

**Q.** What about the interaction score (4H687-bH) of the same binder?
**A.** The interaction score was -1.73.

**Q.** What about the interaction score (4H568-bH) of the same binder?
**A.** The interaction score was 0.634.

**Q.** What about the interaction score (4H3843-bH) of the same binder?
**A.** The interaction score was 1.38.

**Q.** And the interaction score (4H1845-bH)?
**A.** The interaction score was -0.384.

**Q.** What about the interaction score (4H4001-bH) of the same binder?
**A.** Its interaction score is 1.01.

**Q.** What about the interaction score (4H883-bH) of the same binder?
**A.** The interaction score was 0.137.

**Q.** And the interaction score (4H72-bH)?
**A.** The interaction score was 0.492.

**Q.** And the interaction score (4H3189-bH)?
**A.** Its interaction score is -0.241.

**Q.** What about the interaction score (4H3782-bH) of the same binder?
**A.** The interaction score was 0.448.

**Q.** What about the interaction score (4H918-bH) of the same binder?
**A.** Its interaction score is -0.116.

**Q.** Which results are given for DKNQELKKKIEELKRKIWELKKENQELEQ [P12bHq]?
**A.** interaction score (P7bHq): 0.639; interaction score (P1bHq): -1.45; interaction score (P8bHq): -0.489; interaction score (P5bHq): -0.597; interaction score (P3bHq): -0.851; interaction score (P9bHq): 1.15; interaction score (P2bHq): -0.425; interaction score (P4bHq): 0.195; interaction score (P12bHq): -0.763; interaction score (P6bHq): 0.286

**Q.** Which results are given for DEIAALEAELAALEAENAALEAEIAALEG [P1-AA-1HAA-L]?
**A.** interaction score (P2-AA-1HAA-S): 1.77; interaction score (P2-AA): 1.84; interaction score (P2-AA-1HAA-T): 1.93; interaction score (P2-AA-1HAA-D): 1.71; interaction score (P2-AA-1HAA-R): 1.98; interaction score (P2-AA-1HAA-H): 1.95; interaction score (P2-AA-1HAA-I): 1.62; interaction score (P2-AA-1HAA-V): 1.87; interaction score (P2-AA-1HAA-E): 1.89
